Source: US20050214871A1

Molecular target: ligands present on the membranes of early apoptotic cells
Assay: flow cytometry on anti-CD95-treated Jurkat E6-1 cells, streptavidin-PE detection

percent of early apoptotic Jurkat E6-1 cells binding sCD163-biotin: > 50%
Substance: human soluble CD163, biotinylated (sCD163-biotin) (from UniProt Q86VB7 42-1045)
